Assay results published in the RNAGym collection of RNA variant scans (doi:10.1021/acssynbio.7b00057).

B1: Pistol ribozyme (parent)
chain: GGGUCGUUGUUCCAUAAUCGCGUGGAUAUGGCACGCAAGUUUCUACCGGGCACCGUAAAUGUCCGACUGGAGCCGUUCGGGCGGCUAUAAACAGACCUCAGGCCCGAAGCGUGGCGGCACCUGCCGCCGGUGGUAAAAAAGAUCGGAAGAGCACACGUCU

Variants of: B1
Assay: aptazyme ON/OFF ratio, guanine; higher = stronger switching; co-transcriptional cleavage with and without guanine

Row | Variant | aptazyme ON/OFF ratio
1 | U7C U8C G9A U10A U11C C12G C13U | 1.31
2 | U7C U8C G9A U10A U11C C12G C13G | 1.4
3 | U7C U8C G9A U11A C12G C13G | 1.17
4 | U7C U8C G9A U11A C12G C13U | 1.23
5 | U7C U8C G9A U11A C12G C13A | 1.1
6 | U7C U8C G9A U10G U11A C12G C13G | 1.2
7 | U7C U8C G9A U10G U11A C12G C13U | 1.11
8 | U7C U8C G9A U10G U11A C12G C13A | 1.19
9 | U7C U8C G9A U10G U11C C13G | 1.01
10 | U7C U8C G9A U10G U11C C13A | 1.24
11 | U7C U8C G9A U10G U11C C13U | 1.17
12 | U7C U8C G9A U10G U11G C12G C13G | 1.14
13 | U7C U8C G9A U10G U11G C12G C13U | 1.11
14 | U7C U8C G9A U10G U11G C12G C13A | 1.15
15 | U7C U8C G9A U10G C12A C13G | 1.09
16 | U7C U8C G9A U10G C12A C13A | 1.13
17 | U7C U8C G9A U10G C12A C13U | 1.06
18 | U7C U8C G9A U11C C12G C13A | 1.34
19 | U7C U8C G9A U11C C12G C13U | 1.23
20 | U7C U8C G9A U11C C12G C13G | 1.29
21 | U7C U8A U11G C12U C13U | 1.37
22 | U7C U8A U11G C12U C13A | 1.29
23 | U7C U8A U11G C12U C13G | 1.13
24 | U7C U8C G9A U10C U11G C12U C13G | 1.33

Row | Variant | aptazyme ON/OFF ratio
25 | U7C U8C G9A U10C U11G C12U C13U | 1.23
26 | U7C U8C G9A U10C U11G C12U C13A | 1.45
27 | U7C U8C G9A U10A C12A C13A | 1.19
28 | U7C U8C G9A U10A C12A C13U | 1.21
29 | U7C U8C G9A U10A C12A C13G | 1.12
30 | U7C U8C G9C U10A C12A C13A | 1.09
31 | U7C U8C G9C U10A C12A C13U | 1.21
32 | U7C U8C G9C U10A C12A C13G | 1.14
33 | U7C U8C G9C U10A C13U | 1.35
34 | U7C U8C G9C U10A C13G | 1.15
35 | U7C U8C G9C U10A C13A | 1.16
36 | U7C U8C G9A U10G U11C | 1.22
37 | U7C U8C G9A U10G U11A | 1.16
38 | U7C U8C G9A U10G U11G | 1.59
39 | U7C U8C G9C U10A U11A C13A | 1.13
40 | U7C U8C G9C U10A U11A C13U | 1.15
41 | U7C U8C G9C U10A U11A C13G | 1.14
42 | U7C U8C G9A U11A C12U C13U | 1.21
43 | U7C U8C G9A U11A C12U C13A | 1.26
44 | U7C U8C G9A U11A C12U C13G | 1.25
45 | U7C U8C G9C U10A U11C C12A C13G | 1.09
46 | U7C U8C G9C U10A U11C C12A C13U | 1.13
47 | U7C U8C G9C U10A U11C C12A C13A | 1.09
48 | U7C U8C G9C C12U | 1.17

Row | Variant | aptazyme ON/OFF ratio
49 | U7C U8C G9C C12A | 1.26
50 | U7C U8C G9C C12G | 1.18
51 | U7C U8C G9A U10C C12A | 1.12
52 | U7C U8C G9A U10C C12U | 2.28
53 | U7C U8C G9A U10C C12G | 1.33
54 | U7C U8C G9C U10A U11A C12U C13A | 1.03
55 | U7C U8C G9C U10A U11A C12U C13U | 1.17
56 | U7C U8C G9C U10A U11A C12U C13G | 1.2
57 | U7C U8C G9A U10G C12G | 1.22
58 | U7C U8C G9A U10G C12A | 1.21
59 | U7C U8C G9A U10G C12U | 1.46
60 | U7C U8C G9A U10C U11C C12A C13G | 1.17
61 | U7C U8C G9A U10C U11C C12A C13U | 1.31
62 | U7C U8C G9A U10C U11C C12A C13A | 1.39
63 | U7C U8A U11G C13G | 1.06
64 | U7C U8A U11G C13U | 1.19
65 | U7C U8A U11G C13A | 1.14
66 | U7C U8C G9C U10A C12U C13A | 1.11
67 | U7C U8C G9C U10A C12U C13U | 1.11
68 | U7C U8C G9C U10A C12U C13G | 1.13
69 | U7C U8C G9A U10A U11A C12A C13G | 1.16
70 | U7C U8C G9A U10A U11A C12A C13A | 1.2
71 | U7C U8C G9A U10A U11A C12A C13U | 1.19
72 | U7C U8C G9C C12U C13U | 1.14

Row | Variant | aptazyme ON/OFF ratio
73 | U7C U8C G9C C12U C13A | 1.16
74 | U7C U8C G9C C12U C13G | 1.11
75 | U7C U8C G9A C13G | 1.11
76 | U7C U8C G9A C13U | 1.83
77 | U7C U8C G9A C13A | 1.24
78 | U7C U8C G9A U10G U11C C12A C13A | 1.2
79 | U7C U8C G9A U10G U11C C12A C13G | 1.07
80 | U7C U8C G9A U10G U11C C12A C13U | 1.17
81 | U7C U8C G9C U10A | 2.7
82 | U7C U8C G9C U10A U11C C12G C13A | 1.21
83 | U7C U8C G9A U10G | 1.56
84 | U7C U8C G9A U10C | 1.45
85 | U7C U8C G9A U10A | 1.54
86 | U7C U8C G9C U10A U11A C12A C13U | 1.13
87 | U7C U8C G9C U10A U11A C12A C13G | 1.03
88 | U7C U8C G9C U10A U11A C12A C13A | 1.09
89 | U7C U8C | 3.51
90 | U7C U8C G9A U10C U11C | 3.61
91 | U7C U8C G9A U10C U11G | 1.24
92 | U7C U8C G9A U10C U11A | 1.8
93 | U7C U8C G9C U10A U11A C12U | 1.09
94 | U7C U8C G9C U10A U11A C12A | 1.21
95 | U7C U8C G9C U10A U11A C12G | 1.08
96 | U7C U8C G9A U11A C12A C13U | 1.38

Row | Variant | aptazyme ON/OFF ratio
97 | U7C U8C G9A U11A C12A C13G | 1.18
98 | U7C U8C G9A U11A C12A C13A | 1.43
99 | U7C U8C G9A U11G C12U C13G | 1.15
100 | U7C U8C G9A U11G C12U C13U | 1.35
101 | U7C U8C G9A U11G C12U C13A | 1.22
102 | U7C U8C G9C U10A U11C | 1.39
103 | U7C U8C G9C U10A U11A | 1.44
104 | U7C U8C G9A U10A U11G C12A C13U | 1.16
105 | U7C U8C G9A U10A U11G C12A C13G | 1.09
106 | U7C U8C G9A U10A U11G C12A C13A | 1.09
107 | U7C U8A U11G C12U | 1.3
108 | U7C U8C G9A U11C C12U C13A | 1.19
109 | U7C U8C G9A U11C C12U C13G | 1.08
110 | U7C U8C G9A U11C C12U C13U | 1.18
111 | U7C U8C G9C U10A U11A C12G C13G | 1.19
112 | U7C U8C G9C U10A U11A C12G C13U | 1.09
113 | U7C U8C G9C U10A U11A C12G C13A | 1.11
114 | U7C U8C G9A U10C U11A C12G C13U | 1.13
115 | U7C U8C G9A U10C U11A C12G C13G | 1.19
116 | U7C U8C G9A U10C U11A C12G C13A | 1.26
117 | U7C U8C G9A U10A U11G C12U C13U | 1.16
118 | U7C U8C G9A U10A U11G C12U C13A | 1.13
119 | U7C U8C G9A U10A U11G C12U C13G | 1.21
120 | U7C U8C G9A U10G U11A C12U C13U | 1.23

Row | Variant | aptazyme ON/OFF ratio
121 | U7C U8C G9A U10G U11A C12U C13G | 1.19
122 | U7C U8C G9A U10G U11A C12U C13A | 1.19
123 | U7C U8C G9A U11G C13G | 1.28
124 | U7C U8C G9A U11G C13A | 1.3
125 | U7C U8C G9A U11G C13U | 1.27
126 | U7C U8C G9A U10G U11C C12G C13A | 1.17
127 | U7C U8C G9A U10G U11C C12G C13G | 1.26
128 | U7C U8C G9A U10G U11C C12G C13U | 1.19
129 | U7C U8C G9A U10G C13A | 1.27
130 | U7C U8C G9A U10G C13U | 1.37
131 | U7C U8C G9A U10G C13G | 1.12
132 | U7C U8C G9A U10G U11A C12U | 1.11
133 | U7C U8C G9A U10G U11A C12A | 1.37
134 | U7C U8C G9A U10G U11A C12G | 1.17
135 | U7C U8C G9A U10C U11A C12A | 1.51
136 | U7C U8C G9A U10C U11A C12G | 1.23
137 | U7C U8C G9A U10C U11A C12U | 1.22
138 | U7C U8C G9A U10G U11C C12U C13G | 1.18
139 | U7C U8C G9A U10G U11C C12U C13A | 1.29
140 | U7C U8C G9A U10G U11C C12U C13U | 1.26
141 | U7C U8C G9A U10C C13A | 1.47
142 | U7C U8C G9A U10C C13U | 1.52
143 | U7C U8C G9A U10C C13G | 1.35
144 | U7C U8C G9A U10A U11A C12A | 1.5

Row | Variant | aptazyme ON/OFF ratio
145 | U7C U8C G9A U10A U11A C12G | 1.33
146 | U7C U8C G9A U10A U11A C12U | 1.41
147 | U7C U8C G9A U10G U11A C12A C13G | 1.2
148 | U7C U8C G9A U10G U11A C12A C13A | 1.17
149 | U7C U8C G9A U10G U11A C12A C13U | 1.16
150 | U7C U8C G9A U11C C12A | 1.51
151 | U7C U8C G9A U11C C12G | 1.17
152 | U7C U8C G9A U11C C12U | 1.66
153 | U7C U8C G9A U10G U11C C12U | 1.43
154 | U7C U8C G9A U10G U11C C12G | 1.12
155 | U7C U8C G9A U10G U11C C12A | 1.54
156 | U7C U8C G9A U10A U11A C12G C13A | 1.21
157 | U7C U8C G9A U10A U11A C12G C13G | 1.12
158 | U7C U8C G9A U10A U11A C12G C13U | 1.15
159 | U7C U8C G9A U11G C12G | 1.35
160 | U7C U8C G9A U11G C12U | 1.34
161 | U7C U8C G9A U11G C12A | 1.37
162 | U7C U8C G9A U10A U11A C13A | 1.18
163 | U7C U8C G9A U10A U11A C13G | 1.2
164 | U7C U8C G9A U10A U11A C13U | 1.25
165 | U7C U8C G9C C12G C13G | 1.07
166 | U7C U8C G9C C12G C13U | 1.07
167 | U7C U8C G9C C12G C13A | 1.08
